This is an account of results in PMC11289419, “Modular RNA motifs for orthogonal phase separated compartments”.

Series [1] concerns the target streptavidin (fluorescently labeled) (UniProt P22629 25-183). Kind of series: fluorescence microscopy recruitment to RNA condensate; 25% aptamer strand; Multi-stranded: 40 mM HEPES, 100 mM KCl, 500 mM NaCl, 5 uM strands (1.25 uM aptamer strand), 70 C melt, 12 h hold (50 C), imaged after 20 C; co-transcriptional: T7 transcription buffer with 10 mM NaCl, 30 mM MgCl2, 2 mM spermidine, 37 C; pH not given. The following applies: protein: commercial; tags: fluorescent label; chain copies: 4; four-arm nanostar of 4 strands, 5' palindromic sticky end GCGC on S2-S4; aptamer 5' of the S1 sticky end.

A further series addresses T1, P22 N peptide (bacteriophage P22, UniProt P04891 14-30).
T1 chain: NAKTRRHERRRKLAIER
The series is described as above. As to conditions: tags: 6-FAM (stated for single-stranded nanostar experiments); four-arm nanostar of 4 strands, 5' palindromic sticky end GAGCUC on S2-S4; boxB hairpin 5' of the S1 sticky end.

Chain of streptavidin (fluorescently labeled) (P22629 25-183): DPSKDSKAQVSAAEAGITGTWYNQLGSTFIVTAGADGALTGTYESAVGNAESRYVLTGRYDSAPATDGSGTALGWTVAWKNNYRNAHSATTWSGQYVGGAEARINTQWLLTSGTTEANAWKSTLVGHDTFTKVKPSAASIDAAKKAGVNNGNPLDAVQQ

B1: 4m3 nanostar with streptavidin aptamer (structured_RNA)
RNA 1: GAUGCGGCCGCCGACCAGAAUCAUGCAAGUGCGUAAGAUAGUCGCGGGUCGGCGGCCGCAUCGCGCAUCCACGGCGUGUCGCAAGACGCCGACGCGUCG
RNA 2: GCGCAGUCGGGAUAUACCGGAAGCGACACGCCGUGGA
RNA 3: GCGCAAGUCCACAGUGGCGCAACCGGUAUAUCCCGAC
RNA 4: GCGCACGACGCGUCGGCGUCAAGCGCCACUGUGGACU
For the molecule B1, in series [1], the binding result is “binds”.

B2: 4m5 nanostar with P22 boxB (structured_RNA)
RNA 1: GGUGCGCUGACAAAGCGCGCCGAGCUCAGAGUCUCUGGUCGCCAAGCUUAUCGGACACUG
RNA 2: GAGCUCAAGUAGGCACAUCAGCAAGGCGACCAGAGACUC
RNA 3: GAGCUCAUGCGUGGAGACAACGAAGCUGAUGUGCCUACU
RNA 4: GAGCUCACAGUGUCCGAUAAGCAACGUUGUCUCCACGCA
On to B2, for which, in the series with P22 N peptide, the binding result is listed as “binds”.
